Target: T1, GST-PIF3 (Arabidopsis thaliana, UniProt O80536 1-524)
T1 construct: coding region with an NdeI site before the first ATG and an XhoI site at its 3' end, NdeI/XhoI fragment cloned into pGEX4T-2; source: E. coli BL21, purified (Glutathione Sepharose 4B)
T1 sequence (looked up): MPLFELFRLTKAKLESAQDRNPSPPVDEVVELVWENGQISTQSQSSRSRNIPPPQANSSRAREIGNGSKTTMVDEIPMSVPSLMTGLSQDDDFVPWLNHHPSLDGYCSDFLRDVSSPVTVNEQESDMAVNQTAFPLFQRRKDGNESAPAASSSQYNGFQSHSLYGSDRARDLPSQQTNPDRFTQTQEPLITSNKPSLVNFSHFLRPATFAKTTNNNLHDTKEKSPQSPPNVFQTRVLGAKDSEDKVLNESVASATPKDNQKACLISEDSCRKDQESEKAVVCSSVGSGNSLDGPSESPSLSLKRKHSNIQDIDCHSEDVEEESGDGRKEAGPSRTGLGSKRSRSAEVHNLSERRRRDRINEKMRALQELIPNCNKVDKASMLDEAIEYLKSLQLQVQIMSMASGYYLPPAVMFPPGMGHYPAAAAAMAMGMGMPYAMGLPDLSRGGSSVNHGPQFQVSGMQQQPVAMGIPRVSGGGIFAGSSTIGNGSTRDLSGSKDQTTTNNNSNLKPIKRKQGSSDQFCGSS
Experiment: pull-down; GST or GST-PIF3 bound to Glutathione Sepharose 4B beads, incubated with His-MPK6 in 50 mM Tris-HCl pH 7.5, 100 mM NaCl, 0.02% Triton X-100 at 4 °C for 2 h; immunoblot with anti-GST and anti-His
Settings: both partners purified

B1: His-MPK6 (enzyme, Arabidopsis thaliana, UniProt Q39026 1-395, looked up)
chain: MDGGSGQPAADTEMTEAPGGFPAAAPSPQMPGIENIPATLSHGGRFIQYNIFGNIFEVTAKYKPPIMPIGKGAYGIVCSAMNSETNESVAIKKIANAFDNKIDAKRTLREIKLLRHMDHENIVAIRDIIPPPLRNAFNDVYIAYELMDTDLHQIIRSNQALSEEHCQYFLYQILRGLKYIHSANVLHRDLKPSNLLLNANCDLKICDFGLARVTSESDFMTEYVVTRWYRAPELLLNSSDYTAAIDVWSVGCIFMELMDRKPLFPGRDHVHQLRLLMELIGTPSEEELEFLNENAKRYIRQLPPYPRQSITDKFPTVHPLAIDLIEKMLTFDPRRRITVLDALAHPYLNSLHDISDEPECTIPFNFDFENHALSEEQMKELIYREALAFNPEYQQ
notes: coding region amplified from seedling cDNA with an NdeI site before the first ATG, NdeI/SalI fragment cloned into pET28a(+); The NdeI site of pET28a(+) would put the His tag at the N-terminus (surmised); source: E. coli BL21, purified (Ni2+-chelating Sepharose Fast Flow)
**Q.** Does B1 bind?
**A.** binds

Reference: publication PMC5853512, “Arabidopsis MKK10-MPK6 mediates red-light-regulated opening of seedling cotyledons through phosphorylation of PIF3” (Journal of Experimental Botany, 2017)
